Reference: US20150299314A1 (TORAY INDUSTRIES, published 2015)

T1: polypeptide set forth in SEQ ID NO: 430 (human)
T1 peptide: ATQVPLVSSTSEGYTA

T2: human CAPRIN-1 recombinant protein (human, UniProt Q14444 1-709)
T2 construct: also called CAPRIN-1 protein; antigen protein (human CAPRIN-1 protein)
T2 sequence: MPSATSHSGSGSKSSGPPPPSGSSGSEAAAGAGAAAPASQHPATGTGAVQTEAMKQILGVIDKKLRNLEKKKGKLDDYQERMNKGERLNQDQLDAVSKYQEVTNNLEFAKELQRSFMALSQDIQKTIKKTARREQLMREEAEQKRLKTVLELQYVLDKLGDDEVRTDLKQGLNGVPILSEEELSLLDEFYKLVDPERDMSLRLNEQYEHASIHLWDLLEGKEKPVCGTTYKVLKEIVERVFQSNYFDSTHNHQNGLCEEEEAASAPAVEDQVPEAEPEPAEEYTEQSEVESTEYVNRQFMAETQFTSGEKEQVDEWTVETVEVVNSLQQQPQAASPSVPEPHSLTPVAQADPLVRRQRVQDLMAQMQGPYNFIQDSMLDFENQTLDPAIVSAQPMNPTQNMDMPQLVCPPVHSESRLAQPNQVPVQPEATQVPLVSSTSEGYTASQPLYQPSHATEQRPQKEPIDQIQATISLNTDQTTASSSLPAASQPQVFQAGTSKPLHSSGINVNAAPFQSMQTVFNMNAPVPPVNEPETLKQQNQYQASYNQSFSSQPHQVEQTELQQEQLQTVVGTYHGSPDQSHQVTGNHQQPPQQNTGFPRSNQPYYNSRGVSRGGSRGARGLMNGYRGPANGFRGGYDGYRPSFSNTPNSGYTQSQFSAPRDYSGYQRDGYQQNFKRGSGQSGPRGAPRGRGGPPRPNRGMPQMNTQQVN

T3: CAPRIN-1 protein expressed on the cell surface of human cancer cells (human, UniProt Q14444 2-709)
T3 construct: whole, on cells; Target of all flow cytometry and ADCC assays; the cell line is named under assay; also called human CAPRIN-1; cytoplasmic- and proliferation-associated protein 1
T3 sequence (looked up): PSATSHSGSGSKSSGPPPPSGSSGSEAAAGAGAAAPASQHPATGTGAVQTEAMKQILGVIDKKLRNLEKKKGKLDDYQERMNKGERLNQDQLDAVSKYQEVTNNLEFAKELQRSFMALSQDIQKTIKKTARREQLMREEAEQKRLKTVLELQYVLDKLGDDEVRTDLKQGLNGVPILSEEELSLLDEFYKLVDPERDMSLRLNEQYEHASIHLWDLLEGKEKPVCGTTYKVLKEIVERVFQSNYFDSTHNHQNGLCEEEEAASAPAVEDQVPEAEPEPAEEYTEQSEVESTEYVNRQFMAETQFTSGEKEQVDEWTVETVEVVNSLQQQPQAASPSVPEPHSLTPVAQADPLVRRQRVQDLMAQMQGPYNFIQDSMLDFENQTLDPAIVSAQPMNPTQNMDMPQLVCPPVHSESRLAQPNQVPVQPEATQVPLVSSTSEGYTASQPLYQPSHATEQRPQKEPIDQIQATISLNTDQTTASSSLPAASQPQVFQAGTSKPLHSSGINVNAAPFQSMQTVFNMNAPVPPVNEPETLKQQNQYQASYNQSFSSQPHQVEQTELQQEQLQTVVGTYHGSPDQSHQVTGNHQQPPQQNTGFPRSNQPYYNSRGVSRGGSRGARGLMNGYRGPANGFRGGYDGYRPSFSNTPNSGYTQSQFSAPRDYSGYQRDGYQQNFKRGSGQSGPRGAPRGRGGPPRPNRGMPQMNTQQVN


Key:
[1] = molecular target: T1, polypeptide set forth in SEQ ID NO: 430; test: reactivity with the epitope peptide, method not detailed
[2] = molecular target: T2, human CAPRIN-1 recombinant protein; test: reactivity with CAPRIN-1 protein, method not detailed
[3] = molecular target: T3, CAPRIN-1 protein expressed on the cell …; test: reactivity with gallbladder cancer cell lines, method not detailed
[4] = molecular target: T3, CAPRIN-1 protein expressed on the cell …; test: cell-based or functional assay
[5] = molecular target: T3, CAPRIN-1 protein expressed on the cell …; test: flow cytometry, TGBC14TKB cells, culture supernatant, isotype control antibody as control
Procedure: Subsequently, a gallbladder cell line TGBC14TKB, which was confirmed to express a CAPRIN-1 gene, was investigated for whether or not a CAPRIN-1 protein is expressed on the surfaces of these cells. 1×10⁶ cells of TGBC14TKB were centrifuged with a 1.5-mL micro centrifugation tube. To the cells was added the culture supernatant (100 μL) containing any of anti-CAPRIN-1 mouse monoclonal antibodies #1 to #22 reacting to cancer cell surface produced in Example 4 and anti-CAPRIN-1 mouse-chicken chimeric antibodies #1 to #3 produced in the above (2), followed by being left to stand on ice for 1 hour. After washing with PBS, the cells were suspended in a FITC-labeled goat anti-mouse IgG antibody (manufactured by life technologies) diluted by 500-fold with PBS containing 0.1% FBS, followed by being left to stand on ice for 1 hour. After washing with PBS, the fluorescence intensity was measured with FACS Calibur available from Becton, Dickinson and Company. Separately, as a control, the same procedure as in above was performed using an iso-type control antibody, instead of the culture supernatants containing the anti-CAPRIN-1 mouse monoclonal antibodies #1 to #22 and the mouse-chicken chimeric antibodies #1 to #3. As a result, the fluorescence intensity in the cells to which any of the monoclonal antibodies #1 to #22 and the mouse-chicken chimeric antibodies #1 to #3 was added was 20% or more higher than that in the control in every case. Specifically, in the case of using mouse-chicken chimeric antibody #1, the fluorescence intensity was enhanced by 200% or more. […] The rate of increase in the fluorescence intensity is represented by the rate of increase in the mean fluorescence intensity (MFI value) in each cell and is calculated by the following calculation formula: […]

[6] = molecular target: T3, CAPRIN-1 protein expressed on the cell …; test: flow cytometry, TGBC14TKB cells, antibody 20 ug/mL, secondary antibody only as control
Procedure: (§1) A human gallbladder cancer cell line TGBC14TKB was investigated whether or not a CAPRIN-1 protein is expressed on the cell surface. 5×10⁵ cells of the gallbladder cancer cell line were centrifuged with a 1.5-mL micro centrifugation tube. The cells were subjected to reaction with each mouse anti-CAPRIN-1 antibody at a final concentration of 20 μg/mL, followed by being left to stand on ice for 1 hour. After washing with PBS, the cells were reacted with a 100-fold diluted Alexa488-labeled goat anti-mouse IgG antibody (manufactured by life technologies), followed by being left to stand on ice for […]. After washing with PBS, the fluorescence intensity was measured with FACS Calibur available from Becton, Dickinson and Company. As a negative control, only the secondary antibody was used in the reaction.
as §1, with “cell surface using mouse anti-CAPRIN-1 monoclonal antibodies #30 to #36.” for “cell surface.”, “of TGBC14TKB” for “of the gallbladder cancer cell line”, “each of” for “each”, “anti-CAPRIN-1 antibodies #30 to #36” for “anti-CAPRIN-1 antibody”, “Company. Separately, the cells were subjected to reaction with” for “Company. As a negative control,”, “antibody as a negative control.” for “antibody was used in the reaction.”

Binder | binding result [1] | binding result [2] | binding result [3] | cytotoxicity (ADCC, 51Cr release) on TGBC14TKB, human NK cells [4] | rate of increase in mean fluorescence intensity over control [5] | increase in fluorescence intensity over control [6]
humanized anti-CAPRIN-1 antibody #2 (antibody, human IgG1, V domains shown) VH: EVQLVESGGGLVQPGGSLRLSCAASGFSFSGSYYMSWVRQAPGKGLEWIAYIYIGDGVTAYANWAKGRFTISKDNSKNTLYLQMNSLRAEDTAVYFCARGNKLWGPGTLVTVSS VL: DIQMTQSPSSLSASVGDRVTIKCQASQSISSYLAWYQQKPGKAPKRLIYDASNLDSGVPSRFSGSGSGTDFTFTISSLQPEDIATYYCQCTAVSSATIYGNAFGGGTKVEIK | binds | binds | binds |  |  | 
humanized anti-CAPRIN-1 antibody #3 (antibody, human IgG1, V domains shown) VH: EVQLVESGGGLVQPGGSLRLSCAASGFSFSGSYYMSWVRQAPGKGLEWIAYIYIGDGVTAYANWAKGRFTISRDNSKNTLYLQMNSLRAEDTAVYYCARGNKLWGPGTLVTVSS VL: DIQMTQSPSSLSASVGDRVTIKCQASQSISSYLAWYQQKPGKAPKRLIYDASNLDSGVPSRFSGSGSGTDFTFTISSLQPEDIATYYCQCTAVSSATIYGNAFGGGTKVEIK | binds | binds | binds |  |  | 
humanized anti-CAPRIN-1 antibody #1 (antibody, human IgG1, V domains shown) VH: QVQLVESGGGLVKPGGSLRLSCAASGFSFSGSYYMSWVRQAPGKGLEWIAYIYIGDGVTAYANWAKGRFTISRDNAKNSLYLQMNSLRAEDTAVYFCARGNRLWGQGTLVTVSS VL: DIQMTQSPSSLSAAVGDRVTIKCQASQSISSYLAWYQQKPGKPPKRLIYDASNLDSGVPSRFSGSGSGTDFTFTISSLQPEDIATYYCQCTAVSSATIYGNAFGGGTKVEIK | binds | binds | binds |  |  | 
mouse monoclonal antibody #14 (antibody, V domains shown, mouse hybridoma antibody; also called anti-CAPRIN-1 mouse monoclonal antibody #14; anti-CAPRIN-1 monoclonal antibody #14) VH: EVQLHQFGAELVKPGASVKISCKASGYTFTDYNMDWVKQSHGKSLEWIGDINPNYDSTSYNQKFKGKATLTVDKSSSTAYMELRSLTSEDTAVYYCARSRSYDYEGFAYWGQGTLVTVSA VL: DIQLTQSPASLSASVGETVTITCRASGNIHNYLAWYQQKQGKSPQLLVYNAKTLADGVPSRFSGSGSGTQYSLKINSLQPEDFGSYYCQHFWSTLTFGGGTKLEIKQ |  |  |  | ≥ 15% | ≥ 20% | 
mouse monoclonal antibody #15 (antibody, V domains shown, mouse hybridoma antibody; also called anti-CAPRIN-1 mouse monoclonal antibody #15; anti-CAPRIN-1 monoclonal antibody #15) VH: EVQLHQFGAELVKPGASVKISCKASGYTFTDYNMDWVKQSHGKSLEWIGDINPNYDSTSYNQKFKGKATLTVDKSSSTAYMELRSLTSEDTAVYYCARSRSYDYEGFAYWGQGTLVTVSA VL: SGDRVSLSCRASQSISNYLHWYQQKSHESPRLLIKYASQSISGIPSRFSGSGSGTDFTLSINSVETEDFGMYFCQQSNSWPYTFGAGTKLEIKQ |  |  |  | ≥ 15% | ≥ 20% | 
mouse monoclonal antibody #18 (antibody, V domains shown, mouse hybridoma antibody; also called anti-CAPRIN-1 mouse monoclonal antibody #18; anti-CAPRIN-1 monoclonal antibody #18) VH: LQESGAELARPGASVKLSCKASGYTFTSYWMQWVKQRPGQGLEWIGAIYPGDGDTRYTQKFKGKATLTADKSSSTAYMQLSSLASEDSAVYYCARGEYGNYFAYWGQGTTVTVSS VL: TSDASLGERVTITCKASQDINSYLSWFQQKPGKSPKTLIYRANRLVDGVPSRFSGSGSGQDYSLTISSLEYEDMGIYYCLQYDEFPLTFGGGTKLEIKQ |  |  |  | ≥ 15% | ≥ 20% | 
mouse anti-CAPRIN-1 antibody #31 (antibody, V domains shown, mouse hybridoma antibody; also called mouse anti-CAPRIN-1 monoclonal antibody #31) VH: GPELVKPGASVKISCKASGYSFTGYFMNWVMQSHGKSLEWIGRINPYNGDTFYNQKFKGKATLTVDKSSSTAHMELRSLASEDSAVYYCARRIHYYYGSSYYAMDYWGQEPHH VL: DVQITQSPSYLAASPGETITINCRASKSISKYLAWYQEKPGKTNKLLIYSGSTLQSGIPSRFSGSGSGTDFTLTISSLEPEDFAMYYCQQHNEYPWTFGGGTKLEIKR |  |  |  |  |  | ≥ 35%
mouse monoclonal antibody #3 (antibody, V domains shown) VH: GGGLVKPGGSLKLSCAASGFTFSSYGMSWVRQTPEKRLEWVATISSGGSYTYYPDSVKGRFTISRDNAKNTLYLQMSSLRSEDTAMYYCASLASYYFDYWGQGTTLTVSS VL: not shown |  |  |  | ≥ 15% | ≥ 20% | 
mouse anti-CAPRIN-1 antibody #33 (antibody) chain 1: GPGLVKPSQSLSLTCSVTGYSITSGYYWNWIRQFPGNKLEWMGYISYDGSNNYNPSLKNRISITRDTSKNQFFLKLNSVTTEDTATYYCATGMAWFAYW chain 2: not shown |  |  |  |  |  | ≥ 35%
mouse monoclonal antibody #6 (antibody) chain 1: DAELVKPGASVKISCKASGYTFTDHSIHWVQQKPEQGLEWIGYISPGNGNIKYNEKFKGKATLTADKSSSTAYMQLNSLTSEDSAVYFCKRSLGRGGPYYFDYWGQGTTVTVSS chain 2: DIVLTQAAPSLPVTPGESVSISCRSSKSLLHSNGNTYLYWFLQRPGQSPQLLIYRMSNLASGVPDRFSGSGSGTAFTLRISRVEAEDVGVYYCMQHREYPVTFGSGPN |  |  |  | ≥ 15% | ≥ 20% | 
